How the values were obtained:
NKp30 on NK cells [1] = target: T1, NKp30 on NK cells (UniProt O14931 19-201, limits assumed); assay: flow cytometry (y axis MFI, x axis in nM); the legend of FIGS. 3a-3h names a stable expression cell line; fit value of a flat curve, far outside the range tested
T1 sequence (looked up): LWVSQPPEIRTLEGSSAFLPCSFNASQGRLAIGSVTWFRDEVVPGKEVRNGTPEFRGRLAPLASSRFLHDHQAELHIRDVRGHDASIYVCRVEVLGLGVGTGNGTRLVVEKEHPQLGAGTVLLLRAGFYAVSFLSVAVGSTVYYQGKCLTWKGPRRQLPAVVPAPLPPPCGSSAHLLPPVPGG

NKp30 on NK cells [2] = target: T1, NKp30 on NK cells; assay: cell-based or functional assay
[3] = target: T2, human NKp30-his protein (KACTUS; Cat: NKP-HM430) (human, UniProt O14931 19-135, limits assumed); assay: ELISA, Human-NKp30-His coated at 0.2 µg/mL, antibody from 10 µg/mL in 3-fold steps, goat anti-human Fc, OD450 (Example 11)
T2 construct: Bought protein (KACTUS NKP-HM430); not shown: His tag
T2 sequence (looked up): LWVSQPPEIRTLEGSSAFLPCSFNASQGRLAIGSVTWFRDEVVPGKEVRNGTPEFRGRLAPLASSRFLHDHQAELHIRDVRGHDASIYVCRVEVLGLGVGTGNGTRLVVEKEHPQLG
Description: (§1) Human-NKp30-His (purchased from KACTUS, item No. NKP-HM430) was diluted to 0.2 μg/mL with the coating solution (1×PBS, pH 7.4), and was coated into 96-well enzyme-labelled plates at 100 μL/well and allowed to stand overnight at 4° C. The coating solution was poured off, the plate was washed with 1×PBST at 300 μL/well, washed with a plate washer for 4 times, and patted dry on a plate paper. The plate was blocked with 3% skimmed milk powder at 300 μL/well, and incubated at 37° C. for 1 h. The blocking solution was poured off, washed with a plate washer for 4 times, and patted dry on a plate paper. The reference product and the test product were diluted with 3% skimmed milk powder to 10 μg/mL, and the initial concentration was diluted by 3 times. A total of 11 gradients were diluted, and another blank well was set, and only diluent was added. It was incubated at 37° C. and 100 μL/well for 1 h. Liquid in the wells was discarded, and washed with a plate washer for 4 times, and patted dry on a plate paper. The goat anti-human Fc was diluted with 3% skimmed milk powder at 1: 20,000 and 100 μL/well, and incubated at 37° C. for 1 h. The plate was washed with a plate washer for 6 times, and patted dry on a plate paper. TMB color developing solution was added at 100 μL/well, and wrapped with an aluminum foil, and the color was developed at 37° C. for 8 minutes, protected from light. The termination solution 1 M HCl was added at 100 μL/well to terminate the color development reaction. It was read at 450 nm on an enzyme-labeled instrument.

[4] = target: T2, human NKp30-his protein (KACTUS; Cat: …); assay: BLI (Octet Red96e), antibody captured on AHC sensor, 100 nM human NKp30-his in solution, 1:1 fit
Description: (§2) After equilibration of the AHC sensor with 0.02% PBST (0.02% Tween 20, pH 7.4, 1*PBS) as buffer for 60 s, the NKp30 antibody in the sample plate was immobilized for 300 s and second equilibration was performed for 180 s. […] human NKp30-his protein (KACTUS; Cat: NKP-HM430) was bound with NKp30 antibody for 300 s and then dissociated for 600 s. After dissociation, 10 mM glycine (pH 2.0) was used as regeneration buffer to regenerate for 30 s.
Subtract the result plot for reference channel H1 from the test result plot. The experimental data fit the 1:1 binding model. The molecular weight of 35 kDa was used to calculate the molar concentration of human NKp30 protein.

[5] = target: T2, human NKp30-his protein (KACTUS; Cat: …); assay: ELISA, Human-NKp30-His coated at 0.2 µg/mL, antibody from 10 µg/mL in 3-fold steps, goat anti-human Fc, OD450 (Example 11); remark: listed apart in the source
Description: as §1, with “TMB color developing solution was added at 100 μL/well, and wrapped with an aluminum foil, and the color was developed at 37° C. for 8 minutes, protected from light. The termination solution 1 M HCl was added at 100 μL/well to terminate the color development reaction.” left out

[6] = target: T2, human NKp30-his protein (KACTUS; Cat: …); assay: BLI (Octet Red96e), method of Example 6: antibody on AHC sensor, human NKp30-his in solution; second run, Table 4 (Example 12 series with the CDR-modified and humanized variants)
Description: as §2
(§3) The affinity of the CDR-modified and humanized antibodies was tested according to the method of Example 6, and the results are shown in Table 4.

NKp30 on NK cells [7] = target: T1, NKp30 on NK cells; assay: flow cytometry (y axis MFI, x axis in nM); the legend of FIGS. 3a-3h names a stable expression cell line; Example 11 describes no cell assay
[8] = target: T2, human NKp30-his protein (KACTUS; Cat: …); assay: ELISA, Human-NKp30-His coated at 0.2 µg/mL, antibody from 10 µg/mL in 3-fold steps, goat anti-human Fc, OD450 (Example 11); remark: listed apart in the source
Description: as §1

[9] = target: T2, human NKp30-his protein (KACTUS; Cat: …); assay: BLI (Octet Red96e), method of Example 6: antibody on AHC sensor, human NKp30-his in solution
Description: as §2, §3

[10] = target: T2, human NKp30-his protein (KACTUS; Cat: …); assay: ELISA, Human-NKp30-His coated at 0.2 µg/mL, antibody from 10 µg/mL in 3-fold steps, goat anti-human Fc, OD450 (Example 11); the fit value lies above the highest concentration tested
Description: as §1, with “TMB color developing solution was added at 100 μL/well, and wrapped with an aluminum foil, and the color was developed at 37° C. for 8 minutes, protected from light. The termination solution 1 M HCl was added at 100 μL/well to terminate the color development reaction.” left out

[11] = target: T2, human NKp30-his protein (KACTUS; Cat: …); assay: ELISA, Human-NKp30-His coated at 0.2 µg/mL, antibody from 10 µg/mL in 3-fold steps, goat anti-human Fc, OD450 (Example 11); the curve stays low: fitted plateau about OD450 0.25, highest point about 0.4 at 3.3 µg/mL, about 0.2 at 10 µg/mL
Description: as §1, with “TMB color developing solution was added at 100 μL/well, and wrapped with an aluminum foil, and the color was developed at 37° C. for 8 minutes, protected from light. The termination solution 1 M HCl was added at 100 μL/well to terminate the color development reaction.” left out

isotype control antibody
EC50 (NKp30 on NK cells [1]): 241000 nM

B1: antibody 18-hu3 (antibody, V domains shown)
VH: EVQLVESGGGLVQPGGSLRLSCAASGIRFSIANMGWYRQAPGKLHEMVAGITSDGFTNYADSVKGRFTISRDNSKNTLYLQMNSLRAEDTAVYYCASFPTRHYWGQGTLVTVSS
notes: also called humanized antibody 18-hu3
IFN-γ secretion by NK cells stimulated with plate-coated antibody, EC50 (NKp30 on NK cells [2]): 8.83 nM
EC50 [3]: 8.48 ng/mL

B2: antibody 18 (antibody, V domains shown)
VH: EVQLVESGGGLVQPGGSLRLSCAAAGIRFSIANMGWYRQAPGKLHEMVAGITSDGFTNYADSVKGRFTISRDNAKNTVYLQMNNLKPEDTAVYYCDSFPTRHYWGQGTQVTVSS
notes: expressed in CHO cells; also called chimeric antibody 18
Kd [4]: 0.302 nM
EC50 [5]: 3.62 ng/mL
EC50 [3]: 2.51 ng/mL

B3: antibody 18-hu4 (antibody, V domains shown)
VH: EVQLVESGGGLVQPGGSLRLSCAASGIRFSIANMGWYRQAPGKLHEMVAGITSDGFTNYADSVKGRFTISRDNSKNTLYLQMNSLRAEDTAVYYCDSFPTRHYWGQGTLVTVSS
EC50 [5]: 17 ng/mL

B4: antibody 23 (antibody, V domains shown)
VH: EVQLVESGGGLVQPGGSLRLSCAASGSIFSPNGIGWYRQAPGKLRELVAGITGNGLTDYADSVKGRFTISRDSAKNTVYLQMNSLKTEDTAVYYCNLLLNHAEWGQGTQVTVSS
notes: expressed in CHO cells; also called chimeric antibody 23
Kd [6]: 0.844 nM
EC50 (NKp30 on NK cells [7]): 0.658 nM
Kd [4]: 2.34 nM
EC50 [3]: 7.46 ng/mL
EC50 (read off the curve) [3]: ~7 ng/mL
EC50 [8]: 2.38 ng/mL

B5: antibody 23-hu45 (antibody, V domains shown)
VH: EVQLVESGGGLVQPGGSLRLSCAASGSIFSPNGIGWYRQAPGKLRELVAGITGNGLTDYAESVKGRFTISRDNSKNTVYLQMNSLRAEDTAVYYCNLLLNHAEWGQGTLVTVSS
Kd [9]: 0.991 nM
EC50 (read off the curve) [3]: ~3 ng/mL
EC50 [8]: 2.83 ng/mL

B6: antibody 23-hu48 (antibody, V domains shown)
VH: EVQLVESGGGLVQPGGSLRLSCAASGSIFSPNAIGWYRQAPGKGRELVSGITGNGLTDYAESVKGRFTISRDNSKNTVYLQMNSLRAEDTAVYYCALLLNHAEWGQGTLVTVSS
Kd [9]: 5.1 nM
EC50 [10]: 76200 ng/mL

B7: antibody 23-hu52 (antibody, V domains shown)
VH: EVQLVESGGGLVQPGGSLRLSCAASGSIFSPQGIGWYRQAPGKGRELVSGITGNGLTDYAESVKGRFTISRDNSKNTVYLQMNSLRAEDTAVYYCALLLNHAEWGQGTLVTVSS
EC50 [11]: 230 ng/mL
Kd [9]: 5.93 nM

B8: antibody 23-p (antibody, V domains shown)
VH: EVQLVESGGGLVQPGGSLRLSCAASGSIFSPNGIGWYRQAPGKLRELVAGITGNGLTDYAESVKGRFTISRDSAKNTVYLQMNSLKTEDTAVYYCNLLLNHAEWGQGTQVTVSS
EC50 (NKp30 on NK cells [7]): 0.493 nM
Kd [9]: 1.27 nM

Source: patent publication US20240150460A1 (SHENGHE CHINA BIOPHARMACEUTICAL, published 2024)
